Blank lines part the entries; values can stand above or below the binder they belong to.
Key:
[1] = molecular target: T1, recombinant soluble recombinant human α5β1 integrin-Fc fusion protein (human, UniProt P08648 42-995; P05556 21-728, limits assumed); assay: competition ELISA on coated α5β1 integrin-Fc; competitor: biotinylated IIA1
T1 construct: Coated on ELISA plates at 1.0 µg/ml; The construct's limits and the Fc are not described; not shown: Fc part
Experimental: (§1) Wells of 96-well ELISA plates (Nunc-Immuno MaxiSorp plate, NalgeNunc, Naperville, Ill.) were coated with 100 μl of 1.0 μg/ml recombinant soluble recombinant human α5β1 integrin-Fc fusion protein in 0.2 M sodium carbonate-bicarbonate buffer (pH 9.4) overnight at 4° C. After washing with Wash Buffer (PBS containing 0.1% Tween 20), wells were blocked with 200 μl of Superblock Blocking Buffer (Pierce) for 30 min and then washed with Wash Buffer. A mixture of biotinylated murine IIA1 (0.1 μg/test) and competitor antibody (duplicates of serial 3-fold dilutions of competitior antibodies starting at 5 mg/ml) in ELISA Buffer (PBS containing 1% BSA and 0.1% Tween 20) was applied to ELISA plates in a final volume of 100 μl per well. ELISA plates were incubated for 1 hr at room temperature and the wells were washed with Wash Buffer. Then, […] of 1/1,000-diluted HRP-conjugated streptavidin (Pierce, Rockford, Ill.) in ELISA Buffer was applied to each well. After incubating for 0.5 hr at room temperature and washing with Wash Buffer, 100 μl of TMB substrate was added to each well. Absorbance was read at 450 nm using a VERSAmax microplate reader (Molecular Devices, Menlo Park, Calif.). Final competitor concentration in the reaction was plotted versus absorbance at 450 nm.

[2] = molecular target: T1, recombinant soluble recombinant human …; assay: competition ELISA: plate coated with human α5β1 integrin-Fc, unlabelled antibody titrated against biotinylated murine IIA1, streptavidin-HRP, O.D. 450
Experimental: as §1

[3] = molecular target: T2, AAB1/B2Fc; assay: SPR (BIAcore), Fab immobilized by amine coupling, AAB1/B2Fc as analyte, 24° C
T2 construct: Analyte in the BIAcore experiment
Experimental: (§2) Affinities between AAB1/B2Fc and IIA1, M200 or F200 were analyzed using BIAcore 3000 and 2000 (BIAcore, Sweden). IIA1, M200 or F200 was immobilized on the Pioneer F 1 chip using standard amine coupling kit (BIAcore). Surface plasmon resonance was measured at a flow rate of 50 ul/min at 24° C. Injection of AAB1/B2Fc (association phase) occurs over 180 seconds. Dissociation was subsequently monitored over 3 hours. Kinetics of binding were calculated from data acquired at five different concentrations of analyte (320 nM, 160 nM, 80 nM, 40 nM, 20 nM), using the BIAevaluation program. Double-referencing was applied to eliminate responses from reference surface and buffer only control. KD was obtained by simultaneously fitting the association and dissociation phases of the sensorgram from the analyte concentration series.

[4] = molecular target: T2, AAB1/B2Fc; assay: SPR (BIAcore), antibody immobilized by amine coupling, AAB1/B2Fc as analyte, 24° C
Experimental: as §2

T1 sequence (P08648 42-995 limits assumed, chain 1 of 2): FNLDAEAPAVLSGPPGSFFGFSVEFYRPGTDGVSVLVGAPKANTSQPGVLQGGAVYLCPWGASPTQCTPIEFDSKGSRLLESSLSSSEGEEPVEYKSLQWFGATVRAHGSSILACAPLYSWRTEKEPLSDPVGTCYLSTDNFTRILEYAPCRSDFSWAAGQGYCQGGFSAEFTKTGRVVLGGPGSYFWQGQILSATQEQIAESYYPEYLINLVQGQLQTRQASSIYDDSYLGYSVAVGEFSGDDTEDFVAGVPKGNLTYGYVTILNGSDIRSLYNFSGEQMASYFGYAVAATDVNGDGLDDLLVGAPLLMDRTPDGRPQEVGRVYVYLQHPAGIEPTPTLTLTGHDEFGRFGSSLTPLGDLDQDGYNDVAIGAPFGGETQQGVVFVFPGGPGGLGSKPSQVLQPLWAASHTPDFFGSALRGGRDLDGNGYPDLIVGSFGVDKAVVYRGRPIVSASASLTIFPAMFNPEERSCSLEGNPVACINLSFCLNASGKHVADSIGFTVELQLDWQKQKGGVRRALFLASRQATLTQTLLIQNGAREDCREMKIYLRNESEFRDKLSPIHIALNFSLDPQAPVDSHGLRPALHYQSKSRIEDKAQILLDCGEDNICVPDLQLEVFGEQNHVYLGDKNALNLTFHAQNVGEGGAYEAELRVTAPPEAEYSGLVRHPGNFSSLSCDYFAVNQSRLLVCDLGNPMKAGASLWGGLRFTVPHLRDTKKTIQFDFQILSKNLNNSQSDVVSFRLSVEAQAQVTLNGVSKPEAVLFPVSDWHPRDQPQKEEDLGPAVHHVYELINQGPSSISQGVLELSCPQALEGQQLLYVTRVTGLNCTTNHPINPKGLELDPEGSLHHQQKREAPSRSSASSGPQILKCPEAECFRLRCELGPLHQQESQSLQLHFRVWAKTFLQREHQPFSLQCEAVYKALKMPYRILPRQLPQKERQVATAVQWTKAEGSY
T1 sequence (P05556 21-728 limits assumed, chain 2 of 2): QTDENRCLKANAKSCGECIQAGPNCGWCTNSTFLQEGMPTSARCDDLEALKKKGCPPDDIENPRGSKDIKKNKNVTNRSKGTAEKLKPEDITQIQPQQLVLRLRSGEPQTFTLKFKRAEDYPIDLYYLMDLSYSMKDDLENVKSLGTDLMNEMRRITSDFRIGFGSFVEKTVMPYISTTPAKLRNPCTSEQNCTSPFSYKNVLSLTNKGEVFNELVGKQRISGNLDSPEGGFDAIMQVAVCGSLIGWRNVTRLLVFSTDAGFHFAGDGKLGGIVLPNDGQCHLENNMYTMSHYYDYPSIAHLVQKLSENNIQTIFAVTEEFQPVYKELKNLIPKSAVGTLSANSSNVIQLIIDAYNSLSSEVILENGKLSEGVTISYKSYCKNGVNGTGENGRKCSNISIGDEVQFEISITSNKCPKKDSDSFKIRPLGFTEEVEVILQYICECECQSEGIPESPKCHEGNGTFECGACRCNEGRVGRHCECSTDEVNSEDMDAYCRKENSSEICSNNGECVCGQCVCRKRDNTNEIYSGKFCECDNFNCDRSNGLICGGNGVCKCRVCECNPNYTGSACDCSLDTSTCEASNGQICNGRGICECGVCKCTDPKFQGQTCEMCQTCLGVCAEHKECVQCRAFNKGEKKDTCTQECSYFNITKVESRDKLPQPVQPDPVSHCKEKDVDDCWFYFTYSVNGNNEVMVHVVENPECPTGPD

IC50 [1]: 103 µg/mL | IC50 (read off the curve) [2]: ~0.02 µg
B2: HuM200-g2 m3G, humanized M200 with IgG2 constant region (antibody, V domains shown)
VH: EVQLVESGGGLVQPGGSLRLSCAASGFSLTDYGVHWVRQAPGKGLEWLVVIWSDGSSTYNSALKSRMTISKDNAKNTVYLQMNSLRAEDTAVYYCARHGTYYGMTTTGDALDYWGQGTLVTVSS
VL: EIVLTQSPATLSLSPGERATLSCTASSSVSSNYLHWYQQKPGQAPRLLIYSTSNLASGVPARFSGSGSGTSYTLTISSLEPEDFAVYYCHQYLRSPPTFGGGTKVEIK
notes: Same variable domains as HuM200 with a constant region of IgG2

IC50 [1]: 79.1 µg/mL | IC50 (read off the curve) [2]: ~0.02 µg
B3: IIA1, mouse anti-human α5β1 integrin antibody (antibody, V domains shown)
VH: QVQLKESGPGLVAPSQSLSITCTISGFSLTDYGVHWVRQPPGKGLEWLVVIWSDGSSTYNSALKSRMTIRKDNSKSQVFLIMNSLQTDDSAMYYCARHGTYYGMTTTGDALDYWGQGTSVTVSS
VL: QIVLTQSPAIMSASLGERVTMTCTASSSVSSNYLHWYQQKPGSAPNLWIYSTSNLASGVPARFSGSGSGTSYSLTISSMEAEDAATYYCHQYLRSPPTFGGGTKLEIKR
notes: Mouse monoclonal antibody (Pharmingen); also called murine IIA1; M100

More lines, now with the values behind:

B1: HuM200, humanized M200 with IgG4 constant region (antibody, V domains shown)
VH: B2 VH
VL: EIVLTQSPATLSLSPGERATLSCTASSSVSSNYLHWYQQKPGQAPRLLIYSTSNLASGVPARFSGSGSGTSYTLTISSLEPEDFAVYYCHQYLRSPPTFGGGTKVEIKR
notes: Humanized IgG4; also called HuM200-G4; huM200-G4
IC50 [1]: 132 µg/mL | IC50 (read off the curve) [2]: ~0.02 µg

B4: F200, Fab fragment of M200 (Fab, V domains shown)
VH: B3 VH
VL: B3 VL
notes: Made by papain digestion of M200 IgG
Kd [3]: 0.332 nM

B5: M200 chimeric anti-α5β1 integrin antibody (antibody, human IgG4, kappa, V domains shown)
VH: B3 VH
VL: B3 VL
notes: Mouse/human chimeric IgG4/kappa; also called 200-M; 200-4 EOS
IC50 [1]: 106 µg/mL | IC50 (read off the curve) [2]: ~0.02 µg | Kd [4]: 0.367 nM

Source: patent US20050163769A1 (AbbVie / Abbott, published 2005)
